According to US20130123350, “NUCLEIC ACID MOLECULE CAPABLE OF BINDING TO c-MET AND USE THEREOF” (KANAGAWA PREFECTURAL HOSPITAL ORGANIZATION, published 2013):

B1: g2 (ssRNA)
RNA: GGGACGCUCACGUACGCUAAACCCUGGCGAUCUCCGGCCGGAUACGGGAGAACGAGGUACUCAGUGCCUGGACGUGCAGU
B2: g3 (ssRNA)
RNA: GGGACGCUCACGUACGCUAAGGGCGAAACUGUCGUGACACGGUUUGACAUGCCGGCCUUAUCAGUGCCUGGACGUGCAGU
B3: g4 (ssRNA)
RNA: GGGACGCUCACGUACGCUAAUACCGUGAUUCGGGGUGGUAUCCGGUGGACAUCCAGGUCGUCAGUGCCUGGACGUGCAGU
B4: g29 2'-F (ssRNA)
RNA: GGGACGCUCACGUACGCUAAACGAGCCGUGAUUGGGUUGGCAACCCUGCUUAUGUGAGGAUCAGUGCCUGGACGUGCAGU
modifications: 2'-F on all C and U
B5: g25 2'-F (ssRNA)
RNA: GGGACGCUCACGUACGCUAAUAGCAACAGUUCCCAGAGGUGAUCAGGCAGCCUUAAGACAUCAGUGCCUGGACGUGCAGU
modifications: 2'-F on all C and U
B6: g1-u5del (ssRNA)
RNA: GGGCACGUACGCUAAACACACUGAGAGUUUGACCAGCUAUUAAAUGGGUCGUGACUCAGUGCCUGGACGUGCAG
B7: g1-u10del (ssRNA)
RNA: GGGACGCUAAACACACUGAGAGUUUGACCAGCUAUUAAAUGGGUCGUGACUCAGUGCCUGGACGUGC
B8: g1-d5del (ssRNA)
RNA: GGGACGCUCACGUACGCUAAACACACUGAGAGUUUGACCAGCUAUUAAAUGGGUCGUGACUCAGUGCCUGGACGU
B9: g1-d10del (ssRNA)
RNA: GGGACGCUCACGUACGCUAAACACACUGAGAGUUUGACCAGCUAUUAAAUGGGUCGUGACUCAGUGCCUG
B10: g1-u20del (ssRNA)
RNA: GGGCACUGAGAGUUUGACCAGCUAUUAAAUGGGUCGUGACUCAGUGCCUGGACGUG
B11: g28 (ssRNA)
RNA: GGGACGCUCACGUACGCUAACCUGGGGGUUCCGCAGGAAUCGGGAACUAGAUUGGUGGUCUCAGUGCCUGGACGUGCAGU
B12: g29 (ssRNA)
RNA: B4 RNA
B13: g30 (ssRNA)
RNA: GGGACGCUCACGUACGCUAAAAAUUGCCGGGAUCUGGUGUGGCGACCAUGCGGCGUGCAUUCAGUGCCUGGACGUGCAGU
B14: g31 (ssRNA)
RNA: GGGACGCUCACGUACGCUAAAGAGUCUAUGCCGUGAGUGAGGGUGGCGCCUCGACUGCCAUCAGUGCCUGGACGUGCAGU
B15: g32 (ssRNA)
RNA: GGGACGCUCACGUACGCUAAACAAGACCGGGAUGGGGGUUGGUCACACACAAAGACUGAAUCAGUGCCUGGACGUGCAGU
B16: g33 (ssRNA)
RNA: GGGACGCUCACGUACGCUAAACUUUUGGCGAUCUCCGGCCGGAUACGGGAGAACGAGGUAUCAGUGCCUGGACGUGCAGU
B17: g34 (ssRNA)
RNA: GGGACGCUCACGUACGCUAAUUUGGUGAAUUCCGACCAUUUUGCAAACGGGAUACGGGACUCAGUGCCUGGACGUGCAGU
B18: g35 (ssRNA)
RNA: GGGACGCUCACGUACGCUAAGAUUUGUGUGAUACCCGACACUCUAACGGGGUAGCAGGGCUCAGUGCCUGGACGUGCAGU
B19: g36 (ssRNA)
RNA: GGGACGCUCACGUACGCUAACUUGAUUGGUCGCAACCGGACAAGGACGGGUUGAUGCAGUUCAGUGCCUGGACGUGCAGU
B20: g37 (ssRNA)
RNA: GGGACGCUCACGUACGCUAAGGUUUGCUCCGACCGACUAAAGGGAGCCUCUGUCACGAGUUCAGUGCCUGGACGUGCAGU
B21: g38 (ssRNA)
RNA: GGGACGCUCACGUACGCUAACCAGGAGCAUUAGACCGGGGAAAGAAGGAGUACCGUCUGGUCAGUGCCUGGACGUGCAGU

The binders below were run against T1, rec-cMet (Recombinant Human HGF R/c-MET/Fc Chimera) (Homo sapiens, UniProt P08581;P08581 SEQ:1-283,SEQ:1-625) (assay: ELONA; 3' polyA20/biotin-polyT; also SPR FIG. 11). Details: tags: C-terminal HIEGRMD linker, human IgG Fc (100-330), 6xHis; R&D Systems; chain copies: 2 (inferred, Fc chimera).
T1 sequence (P08581 25-307, change not shown, chain 1 of 2): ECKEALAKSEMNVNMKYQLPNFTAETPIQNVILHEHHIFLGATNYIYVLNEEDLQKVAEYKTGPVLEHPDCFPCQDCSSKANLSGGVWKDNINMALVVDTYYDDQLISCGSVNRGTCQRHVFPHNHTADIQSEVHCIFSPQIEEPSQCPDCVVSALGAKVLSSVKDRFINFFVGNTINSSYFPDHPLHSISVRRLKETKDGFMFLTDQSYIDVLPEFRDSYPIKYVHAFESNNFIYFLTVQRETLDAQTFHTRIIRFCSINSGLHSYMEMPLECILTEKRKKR
T1 sequence (P08581 308-932, change not shown, chain 2 of 2): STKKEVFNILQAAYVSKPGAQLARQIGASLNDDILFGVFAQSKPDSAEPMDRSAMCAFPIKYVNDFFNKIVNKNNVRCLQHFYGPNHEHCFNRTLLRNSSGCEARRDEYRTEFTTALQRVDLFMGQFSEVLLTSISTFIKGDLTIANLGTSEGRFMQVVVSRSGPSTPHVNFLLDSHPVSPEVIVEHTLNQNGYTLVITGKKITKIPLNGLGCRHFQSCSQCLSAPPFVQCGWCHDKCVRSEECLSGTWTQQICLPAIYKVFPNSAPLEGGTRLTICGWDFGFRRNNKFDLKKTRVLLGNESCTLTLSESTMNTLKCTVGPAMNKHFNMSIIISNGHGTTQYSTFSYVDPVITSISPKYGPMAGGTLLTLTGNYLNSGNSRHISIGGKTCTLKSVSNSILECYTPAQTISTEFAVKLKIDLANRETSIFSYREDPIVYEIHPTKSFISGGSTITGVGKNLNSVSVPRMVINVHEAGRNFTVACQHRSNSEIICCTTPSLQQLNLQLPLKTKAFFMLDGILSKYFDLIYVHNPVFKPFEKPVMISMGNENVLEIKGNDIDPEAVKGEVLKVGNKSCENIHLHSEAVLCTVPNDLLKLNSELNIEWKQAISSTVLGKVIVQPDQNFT
Method: (§1) An anti-IgG antibody (trade name: “Human IgG-Fc Antibody”, Bethyl Laboratories) was adsorbed on a 96-well plate (Iwaki, AGC Techno Glass Co., Ltd., Japan), and then was subjected to blocking using 1% bovine serum albumin. Subsequently, 50 μL of the 1 μg/mL rec-cMet was added to the plate. Further, Tris (20 mmol/L), sodium chloride (100 mmol/L), magnesium acetate (0.1 mmol/L) and Triton (registered trademark)-X100 (0.2%) were added to the plate so that their final concentrations would be as shown in the parentheses. The plate was incubated at room temperature for 3 hours, thus causing the rec-cMet to bind to the plate. After the incubation, the plate was washed three times with a washing solution. The composition of the washing solution was as follows: 20 mmol/L Tris, 100 mmol/L sodium chloride, 0.1 mmol/L magnesium acetate, and 0.2% Triton (registered trademark)-X100. As a control, incubation and washing were carried out in the same manner, except that 50 μL of the washing solution was added instead of 50 μL of the rec-cMet.
(§2) Next, a 20-mer polyadenine (poly A) was added to the 3′ end of each of the RNA aptamers. Thus, poly-A-added RNA aptamers were prepared. Each of the poly-A-added RNA aptamers was denatured, and thereafter, the denatured poly-A-added RNA aptamer was mixed with a 20-mer biotinylated polythymine with its 5′ end being biotinylated (740 nmol/L), tRNA (100 μg/mL), and an RNase inhibitor (0.16 units/mL). As a result, complementary binding occurred between the poly A in the poly-A-added RNA aptamer and the polythymine (poly T) in the biotinylated polythymine, whereby a biotin-labeled RNA aptamer was produced. The biotin-labeled RNA aptamer was added to the plate, and the plate was incubated at 4° C. for 30 minutes. Subsequently, the plate was washed, and 0.1 μg/mL HRP-streptavidin (Thermo Fisher Scientific Inc., USA) was added thereto. The plate was then washed, after which a 1-Step Ultra TMB substrate (Thermo Fisher Scientific Inc., USA) was added to the plate to cause color development, and the absorbance at 450 nm was measured.
B1: binds.
B2: binds.
B3: binds.

Each binder was assayed against T1, rec-cMet (Recombinant Human HGF …) (assay: SPR; excellent binding; rec-cMet 60 nM). Details: tags: C-terminal HIEGRMD linker, human IgG Fc (100-330), 6xHis; R&D Systems; chain copies: 2 (inferred, Fc chimera).
Source text: (§3) The binding ability of each of the RNA aptamers to the rec-cMet was examined in the same manner as in Example 5, except that the fluorinated RNA aptamers were used. The concentration of the rec-cMet was set to 60 nmol/L. With the time point at which the introduction of the rec-cMet to the chip was started being 0 seconds, introduction of a buffer was started 60 seconds later. As a comparative example, the same negative control as in Example 6 was used.
FIG. 12 is a graph showing the binding ability of each of the RNA aptamers to the rec-cMet. In FIG. 12, the vertical axis indicates the signal intensity (RU) measured with BIACORE (registered trademark) X. The signal intensity shown in the graph is a value measured at the 60th second when the buffer was introduced. […] By fluorination, these RNA aptamers had acquired RNase resistance and they also maintained the bonding force to the c-Met. Thus, it can be seen that these fluorinated RNA aptamers are particularly suitable for use in vivo and in vitro. All the RNA aptamers maintained equivalent signal values subsequent to the 60th second. Thus, it was confirmed that no decrease in binding ability occurred.
B4: binds.
B5: binds.

These binders were tested against rec-NGFR (Recombinant Human NGF R/TNFRSF16/Fc Chimera) (Homo sapiens, UniProt P08138 SEQ:1-222) (assay: ELONA; signal below 40N). Details: tags: C-terminal DIEGRMD linker, human IgG Fc (100-330), 6xHis; R&D Systems; chain copies: 2 (inferred, Fc chimera).
Chain of rec-NGFR (Recombinant Human NGF R/TNFRSF16/Fc Chimera) (P08138 29-250, change not shown): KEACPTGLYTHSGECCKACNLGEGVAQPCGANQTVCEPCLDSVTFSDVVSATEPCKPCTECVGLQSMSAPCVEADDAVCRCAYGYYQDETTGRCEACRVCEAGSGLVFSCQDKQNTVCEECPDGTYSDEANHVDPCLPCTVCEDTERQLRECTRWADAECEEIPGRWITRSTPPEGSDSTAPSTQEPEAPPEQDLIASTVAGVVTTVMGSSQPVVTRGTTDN
Method: as §2
The binding ability of each of the RNA aptamers to the rec-NGFR was examined in the same manner as in Example 1, except that the rec-NGFR was bound to the plate. Also, as a comparative example, the 40N was used, and the binding ability thereof was examined in the same manner.
B1: no binding.
B2: no binding.
B3: no binding.

Each binder was assayed against T1, rec-cMet (Recombinant Human HGF …) (assay: ELONA; signal higher than g1). Details: tags: C-terminal HIEGRMD linker, human IgG Fc (100-330), 6xHis; R&D Systems; chain copies: 2 (inferred, Fc chimera).
Method: as §1, §2
The binding ability of each of the RNA aptamers to the rec-cMet was examined in the same manner as in Example 1, except that the truncated RNA aptamers were used. Also, the binding ability of the RNA aptamer g1 was examined in the same manner.
B6: binds.
B7: binds.
B8: binds.
B9: binds.
B10: binds.

Each binder was assayed against T1, rec-cMet (Recombinant Human HGF …) (assay: SPR; rec-cMet 175 nM). Details: tags: C-terminal HIEGRMD linker, human IgG Fc (100-330), 6xHis; R&D Systems; chain copies: 2 (inferred, Fc chimera).
Method: (§4) Using these truncated RNA aptamers, the binding ability thereof to the rec-cMet was examined. The binding ability was analyzed using BIACORE (registered trademark) X (GE Healthcare) in accordance with its instructions for use, with the concentration of the rec-cMet being set to 175 nmol/L. Also, the binding ability of each of the RNA aptamers g1 and g1-trA was examined in the same manner. As a comparative example, the 40N was used, and the binding ability thereof was examined in the same manner.
GGGACUGAGAGUUUGACCAGCUAUUAAAUGGGUCGUGACUCAGU (ssRNA) [g1-miniA] showed a Kd of 7.98 nM.
With GGGCUGAGAGUUUGACCAGCUAUUAAAUGGGUCGUGACUCAG (ssRNA) [g1-miniB] the Kd was 26.4 nM.
GGGUGAGAGUUUGACCAGCUAUUAAAUGGGUCGUGACUCA (ssRNA) [g1-miniC]: binds.

What follows are binders tested against T1, rec-cMet (Recombinant Human HGF …) (assay: SPR; rec-cMet 175 nM; also ELISA signal above g1 (FIG. 7)). Details: tags: C-terminal HIEGRMD linker, human IgG Fc (100-330), 6xHis; R&D Systems; chain copies: 2 (inferred, Fc chimera).
Method: as §4
With GGGCACUGAGAGUUUGACCAGCUAUUAAAUGGGUCGUGACUCAGUG (ssRNA) [g1-trA] the Kd was 8.18 nM.

The binders below were run against T1, rec-cMet (Recombinant Human HGF …) (assay: SPR; rec-cMet 100 nM). Details: tags: C-terminal HIEGRMD linker, human IgG Fc (100-330), 6xHis; R&D Systems; chain copies: 2 (inferred, Fc chimera).
Method: as §4
as §3, with “the above” for “the fluorinated”, “to 100” for “to 60”, “later.” for “later. As a comparative example, the same negative control as in Example 6 was used.”
B11: binds.
B12: binds.
B13: binds.
B14: binds.
B15: binds.
B16: binds.
B17: binds.
B18: binds.
B19: binds.
B20: binds.
B21: binds.
